According to patent US20220403022A1 (Merck KGaA, published 2022):
Changes are numbered by the printed parent chain. “And” between values parts separate entries of the source, which are not always exact repeats. Identical values can stand only once.

Legend:
[1] = molecular target: T1, human TIGIT ECD expressed on the CHO-S cell surface (human, UniProt Q495A1 22-141); assay: flow cytometry blocking assay on CHO-S-human TIGIT cells, competitor biotinylated human CD112-Fc 2 µg/mL
T1 construct: sections 3.13 and 4.1 say only stably expressing human TIGIT; also called CHO-S-hTIGIT; CHO-S-huTIGIT
T1 sequence: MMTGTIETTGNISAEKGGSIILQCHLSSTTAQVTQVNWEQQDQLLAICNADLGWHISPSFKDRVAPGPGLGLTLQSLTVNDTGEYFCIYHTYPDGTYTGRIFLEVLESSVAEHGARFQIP

[2] = molecular target: T2, human TIGIT on cells (primary T cells, transfected HEK293 cells, Jurkat reporter cells, NK cells) (human, UniProt Q495A1 22-244); assay: cell-based or functional assay
T2 sequence: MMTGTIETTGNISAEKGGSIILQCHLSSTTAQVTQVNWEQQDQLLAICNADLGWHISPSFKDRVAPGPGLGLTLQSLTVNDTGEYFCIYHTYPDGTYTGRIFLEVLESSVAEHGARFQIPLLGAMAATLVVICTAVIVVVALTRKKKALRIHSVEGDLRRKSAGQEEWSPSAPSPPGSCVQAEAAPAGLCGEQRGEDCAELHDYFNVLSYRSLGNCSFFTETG

[3] = molecular target: T1, human TIGIT ECD expressed on the CHO-S …; assay: flow cytometry blocking assay on CHO-S-hTIGIT cells, competitor muCD155-Fc; competitor muCD155-Fc; human IgG 3963H03-12
[4] = molecular target: T3, cynomolgus monkey TIGIT on primary T cells (cynomolgus monkey, UniProt A0A7N9I9V4 89-312); assay: target occupancy on CD3+ T cells of cynomolgus monkey spleen cells, unoccupied TIGIT detected with biotinylated 3963H03-12, flow cytometry, 6 donors
T3 construct: whole, on cells; also called cyno PBMCs; cynomolgus monkey spleen cells

[5] = molecular target: T2, human TIGIT on cells (primary T cells, …); assay: target occupancy on CD3+ T cells in human whole blood, unoccupied TIGIT detected with biotinylated 3963H03-12, flow cytometry, 9 donors
[6] = molecular target: T2, human TIGIT on cells (primary T cells, …); assay: flow cytometry, live transfected HEK293 cells
[7] = molecular target: T1, human TIGIT ECD expressed on the CHO-S …; assay: flow cytometry blocking assay on CHO-S-human TIGIT cells, competitor biotinylated human CD155-Fc 2 µg/mL
[8] = molecular target: T1, human TIGIT ECD expressed on the CHO-S …; assay: cell-based or functional assay
[9] = molecular target: T2, human TIGIT on cells (primary T cells, …); assay: cell-based or functional assay; remark: listed apart in the source
[10] = molecular target: T2, human TIGIT on cells (primary T cells, …); assay: flow cytometry on CD3+ T cells of human PBMCs
[11] = molecular target: T1, human TIGIT ECD expressed on the CHO-S …; assay: flow cytometry blocking assay on CHO-S-hTIGIT cells, competitor muCD112; competitor muCD112; human IgG 3963H03-12
[12] = molecular target: T3, cynomolgus monkey TIGIT on primary T …; assay: flow cytometry on CD3+ T cells of cyno PBMCs
human TIGIT ECD A71G = molecular target: T4, human TIGIT ECD A71G (human, UniProt Q495A1 22-141); assay: SPR, antibody captured on anti-human Fc, TIGIT ECD injected
T4 construct: point mutant expressed in E. coli
T4 chain: T1 sequence with A50G

human TIGIT ECD P114G = molecular target: T5, human TIGIT ECD P114G (human, UniProt Q495A1 22-141); assay: as above
T5 construct: point mutant expressed in E. coli
T5 chain: T1 sequence with P93G

human TIGIT ECD T51A = molecular target: T6, human TIGIT ECD T51A (human, UniProt Q495A1 22-141); assay: as above
T6 construct: point mutant expressed in E. coli
T6 chain: T1 sequence with T30A

human TIGIT ECD Q56A = molecular target: T7, human TIGIT ECD Q56A (human, UniProt Q495A1 22-141); assay: as above
T7 construct: point mutant expressed in E. coli
T7 chain: T1 sequence with Q35A

His-tagged human TIGIT = molecular target: T8, His-tagged human TIGIT (human, UniProt Q495A1 22-141); assay: SPR Biacore, antibody captured on anti-human Fc, His-tagged TIGIT injected
T8 construct: soluble analyte in SPR
T8 sequence: T1 sequence

[13] = molecular target: T9, His-tagged cynomolgus monkey TIGIT (cynomolgus monkey, UniProt A0A7N9I9V4 89-209); assay: as above
T9 construct: also called Cyno TIGIT; cynomolgus monkey TIGIT (Novoprotein cat. No. CP02)
T9 sequence (A0A7N9I9V4 entry or part of it): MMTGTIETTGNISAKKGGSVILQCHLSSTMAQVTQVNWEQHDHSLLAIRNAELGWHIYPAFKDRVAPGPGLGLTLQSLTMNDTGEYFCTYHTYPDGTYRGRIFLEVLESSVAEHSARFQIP

T3 sequence (A0A7N9I9V4 entry or part of it): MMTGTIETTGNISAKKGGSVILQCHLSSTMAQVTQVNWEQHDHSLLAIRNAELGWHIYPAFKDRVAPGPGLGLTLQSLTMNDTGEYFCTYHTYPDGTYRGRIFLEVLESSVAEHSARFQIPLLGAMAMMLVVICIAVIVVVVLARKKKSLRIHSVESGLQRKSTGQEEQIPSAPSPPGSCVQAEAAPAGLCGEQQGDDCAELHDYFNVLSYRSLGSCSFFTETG

B1: 3963H03-12 (antibody, human IgG1, kappa, V domains shown)
VH: QVQLVQSGSELKKPGASVKVSCKASGYTFTSYPMNWVRQAPGQGLEWMGWINTNTGNPTYAQGFTGRFVFSLDTSVSTAYLQISSLKAEDTAVYYCARVGGYSVDEYAFDVWGQGTLVTVSS
VL: DIQLTQSPSFLSASVGDRVTITCRASQGISSYLAWYQQKPGKAPKLLIYAASTLQSGVPSRFSGSGSGTEFTLTISSLQPEDFATYYCQQLSSYPTFGGGTKVEIKR
notes: also called anti-TIGIT H03-12; 39631H03-12
Q: What does the source list for B1?
A: IC50 [1]: 0.411 µg/mL and 2.8 nM; EC50 [2]: 12.5 µg/mL; IC50 [3]: 0.499 µg/mL; EC50 [4]: 0.0927 µg/mL and 0.6 nM; EC50 [5]: 0.24 µg/mL and 1.6 nM; fold median fluorescence over vector-only transfected HEK293 cells [6]: 130 fold; IC50 [7]: 0.165 µg/mL and 1.1 nM; ADCC EC50, nM (Donor 1005-4464) [8]: 0.026 nM; ADCC EC50, nM (Donor 1102-7215) [8]: 0.1 nM; ADCC EC50, nM (Donor 1106-0557) [8]: 0.059 nM; NK-mediated killing of P815.hCD155 cells (Caspase-3/7 signal) [9]: ≤ 2 fold; EC50 [10]: 0.0852 µg/mL and 0.6 nM; IC50 [11]: 1.68 µg/mL; EC50 [12]: 0.132 µg/mL and 0.8 nM; Kd (human TIGIT ECD A71G): 7.02 nM; ΔΔGmut (human TIGIT ECD A71G): 0.72 kcal/mol; ΔΔGmut (human TIGIT ECD P114G): > 3 kcal/mol; Kd (human TIGIT ECD T51A): 1.77 nM; ΔΔGmut (human TIGIT ECD T51A): -0.1 kcal/mol; Kd (human TIGIT ECD Q56A): 33.9 nM; ΔΔGmut (human TIGIT ECD Q56A): 1.65 kcal/mol; Kd (His-tagged human TIGIT): 4.05 nM; koff (His-tagged human TIGIT): 0.00067 s⁻¹; kon (His-tagged human TIGIT): 166000 M⁻¹ s⁻¹; Kd [13]: 0.829 nM and 0.83 nM; koff [13]: 0.000133 s⁻¹; kon [13]: 160000 M⁻¹ s⁻¹
